Reference: patent US20170029844A1

Target: Spodoptera frugiperda ABCc2 transporter (Spodoptera frugiperda)
Assay: cell-based or functional assay

For TIC105 toxin (wild type, unmodified), the relative fluorescence of SYTOX Green, Sf9 cells expressing the SfABCc2 transporter (relative fluorescence) was 57200.
